{"source": "patent US12258594B2", "about": "“Cas proteins with reduced immunogenicity and methods of screening thereof” (THE BROAD INSTITUTE, INC., priority 2018, dated 2025)", "origin": "cited, not measured here", "molecules": {"B1": {"name": "SaCas9 T787A: T787A mutant of SaCas9 (protein, UniProt J7RUA5 1-1053, looked up, variant T787A)", "CRISPR-associated …": "MKRNYILGLDIGITSVGYGIIDYETRDVIDAGVRLFKEANVENNEGRRSKRGARRLKRRRRHRIQRVKKLLFDYNLLTDHSELSGINPYEARVKGLSQKLSEEEFSAALLHLAKRRGVHNVNEVEEDTGNELSTKEQISRNSKALEEKYVAELQLERLKKDGEVRGSINRFKTSDYVKEAKQLLKVQKAYHQLDQSFIDTYIDLLETRRTYYEGPGEGSPFGWKDIKEWYEMLMGHCTYFPEELRSVKYAYNADLYNALNDLNNLVITRDENEKLEYYEKFQIIENVFKQKKKPTLKQIAKEILVNEEDIKGYRVTSTGKPEFTNLKVYHDIKDITARKEIIENAELLDQIAKILTIYQSSEDIQEELTNLNSELTQEEIEQISNLKGYTGTHNLSLKAINLILDELWHTNDNQIAIFNRLKLVPKKVDLSQQKEIPTTLVDDFILSPVVKRSFIQSIKVINAIIKKYGLPNDIIIELAREKNSKDAQKMINEMQKRNRQTNERIEEIIRTTGKENAKYLIEKIKLHDMQEGKCLYSLEAIPLEDLLNNPFNYEVDHIIPRSVSFDNSFNNKVLVKQEENSKKGNRTPFQYLSSSDSKISYETFKKHILNLAKGKGRISKTKKEYLLEERDINRFSVQKDFINRNLVDTRYATRGLMNLLRSYFRVNNLDVKVKSINGGFTSFLRRKWKFKKERNKGYKHHAEDALIIANADFIFKEWKKLDKAKKVMENQMFEEKQAESMPEIETEQEYKEIFITPHQIKHIKDFKDYKYSHRVDKKPNRELINDALYSTRKDDKGNTLIVNNLNGLYDKDNDKLKKLINKSPEKLLMYHHDPQTYQKLKLIMEQYGDEKNPLYKYYEETGNYLTKYSKKDNGPVIKKIKYYGNKLNAHLDITDDYPNSRNKVVKLSLKPYRFDVYLDNGVYKFVTVKNLDVIKKENYYEVNSKCYEEAKKLKKISNQAEFIASFYNNDLIKINGELYRVIGVNNDLLNRIEVNMIDITYREYLENMNDKRPPRIIKTIASKTQSIKKYSTDILGNLYEVKSKKHPQIIKKG"}, "B2": {"name": "D704A: D704A mutant of SaCas9 (protein, UniProt J7RUA5 1-1053, looked up, variant D704A)", "CRISPR-associated …": "B1 CRISPR-associated … with D704A, A787T"}, "B3": {"name": "N580A: N580A mutant of SaCas9 (protein, UniProt J7RUA5 1-1053, looked up, variant N580A)", "CRISPR-associated …": "B1 CRISPR-associated … with N580A, A787T"}, "B4": {"name": "D10A: D10A mutant of SaCas9 (protein, UniProt J7RUA5 1-1053, looked up, variant D10A)", "CRISPR-associated …": "B1 CRISPR-associated … with D10A, A787T"}, "B5": {"name": "H557A: H557A mutant of SaCas9 (protein, UniProt J7RUA5 1-1053, looked up, variant H557A)", "CRISPR-associated …": "B1 CRISPR-associated … with H557A, A787T"}, "B6": {"name": "E477A: E477A mutant of SaCas9 (protein, UniProt J7RUA5 1-1053, looked up, variant E477A)", "CRISPR-associated …": "B1 CRISPR-associated … with E477A, A787T"}, "B7": {"name": "Asn997: LbuCas13a with Asn997 substituted with alanine (protein, UniProt C7NBY4 1-1159, looked up, variant N997A)", "CRISPR-associated …": "MKVTKVGGISHKKYTSEGRLVKSESEENRTDERLSALLNMRLDMYIKNPSSTETKENQKRIGKLKKFFSNKMVYLKDNTLSLKNGKKENIDREYSETDILESDVRDKKNFAVLKKIYLNENVNSEELEVFRNDIKKKLNKINSLKYSFEKNKANYQKINENNIEKVEGKSKRNIIYDYYRESAKRDAYVSNVKEAFDKLYKEEDIAKLVLEIENLTKLEKYKIREFYHEIIGRKNDKENFAKIIYEEIQNVNNMKELIEKVPDMSELKKSQVFYKYYLDKEELNDKNIKYAFCHFVEIEMSQLLKNYVYKRLSNISNDKIKRIFEYQNLKKLIENKLLNKLDTYVRNCGKYNYYLQDGEIATSDFIARNRQNEAFLRNIIGVSSVAYFSLRNILETENENDITGRMRGKTVKNNKGEEKYVSGEVDKIYNENKKNEVKENLKMFYSYDFNMDNKNEIEDFFANIDEAISSIRHGIVHFNLELEGKDIFAFKNIAPSEISKKMFQNEINEKKLKLKIFRQLNSANVFRYLEKYKILNYLKRTRFEFVNKNIPFVPSFTKLYSRIDDLKNSLGIYWKTPKTNDDNKTKEIIDAQIYLLKNIYYGEFLNYFMSNNGNFFEISKEIIELNKNDKRNLKTGFYKLQKFEDIQEKIPKEYLANIQSLYMINAGNQDEEEKDTYIDFIQKIFLKGFMTYLANNGRLSLIYIGSDEETNTSLAEKKQEFDKFLKKYEQNNNIKIPYEINEFLREIKLGNILKYTERLNMFYLILKLLNHKELTNLKGSLEKYQSANKEEAFSDQLELINLLNLDNNRVTEDFELEADEIGKFLDFNGNKVKDNKELKKFDTNKIYFDGENIIKHRAFYNIKKYGMLNLLEKIADKAGYKISIEELKKYSNKKNEIEKNHKMQENLHRKYARPRKDEKFTDEDYESYKQAIENIEEYTHLKNKVEFNELNLLQGLLLRILHRLVGYTSIWERDLRFRLKGEFPENQYIEEIFNFEAKKNVKYKGGQIVEKYIKFYKELHQNDEVKINKYSSANIKVLKQEKKDLYIRNYIAHFNYIPHAEISLLEVLENLRKLLSYDRKLKNAVMKSVVDILKEYGFVATFKIGADKKIGIQTLESEKIVHLKNLKKKKLMTDRNSEELCKLVKIMFEYKMEEKKSEN"}, "B8": {"name": "His473: LbuCas13a with His473 substituted with alanine (protein, UniProt C7NBY4 1-1159, looked up, variant H473A)", "CRISPR-associated …": "B7 CRISPR-associated … with H473A, A997N"}, "B9": {"name": "Lys998: LbuCas13a with Lys998 substituted with alanine (protein, UniProt C7NBY4 1-1159, looked up, variant K998A)", "CRISPR-associated …": "B7 CRISPR-associated … with A997N, K998A"}, "B10": {"name": "Phe995: LbuCas13a with Phe995 substituted with alanine (protein, UniProt C7NBY4 1-1159, looked up, variant F995A)", "CRISPR-associated …": "B7 CRISPR-associated … with F995A, A997N"}, "B11": {"name": "Lys718Ala: Lys718Ala mutant of LbuCas13a (protein, UniProt C7NBY4 1-1159, looked up, variant K718A)", "CRISPR-associated …": "B7 CRISPR-associated … with K718A, A997N"}, "B12": {"name": "Lys845Ala: Lys845Ala mutant of LbuCas13a (protein, UniProt C7NBY4 1-1159, looked up, variant K845A)", "CRISPR-associated …": "B7 CRISPR-associated … with K845A, A997N"}, "B13": {"name": "Arg1135Ala: Arg1135Ala mutant of LbuCas13a (protein, UniProt C7NBY4 1-1159, looked up, variant R1135A)", "CRISPR-associated …": "B7 CRISPR-associated … with A997N, R1135A"}, "B14": {"name": "Gln519Ala: Gln519Ala mutant of LbuCas13a (protein, UniProt C7NBY4 1-1159, looked up, variant Q519A)", "CRISPR-associated …": "B7 CRISPR-associated … with Q519A, A997N"}}, "note": "Substitutions are numbered along the chain they refer to. Names may count otherwise."}
{"system": "target DNA", "details": "SaCas9 mutants"}
{"molecule": "B1", "DNA cleavage activity": "reduced DNA cleavage activity"}
{"molecule": "B2", "DNA cleavage activity": "almost no DNA cleavage activity"}
{"molecule": "B3", "DNA cleavage activity": "almost completely lacked DNA cleavage activity"}
{"molecule": "B4", "DNA cleavage activity": "almost no DNA cleavage activity"}
{"molecule": "B5", "DNA cleavage activity": "almost completely lacked DNA cleavage activity"}
{"molecule": "B6", "DNA cleavage activity": "almost no DNA cleavage activity"}
{"system": "target RNA", "details": "LbuCas13a HEPN mutants"}
{"molecule": "B7", "cleavage of target and non-target ssRNA substrate": "significantly reduced the cleavage of both target and non-target ssRNA substrate"}
{"molecule": "B8", "cleavage of target and non-target ssRNA substrate": "significantly reduced the cleavage of both target and non-target ssRNA substrate"}
{"molecule": "B9", "cleavage of target and non-target ssRNA substrate": "significantly reduced the cleavage of both target and non-target ssRNA substrate"}
{"molecule": "B10", "cleavage of target and non-target ssRNA substrate": "significantly reduced the cleavage of both target and non-target ssRNA substrate"}
{"system": "target RNA", "details": "LbuCas13a alanine mutants"}
{"molecule": "B11", "crRNA-guided target RNA cleavage activity": "reduced target RNA cleavage activity"}
{"molecule": "B12", "crRNA-guided target RNA cleavage activity": "reduced target RNA cleavage activity"}
{"molecule": "B13", "crRNA-guided target RNA cleavage activity": "reduced cleavage activities"}
{"molecule": "B14", "crRNA-guided target RNA cleavage activity": "reduced cleavage activities"}
